Measured values reported in patent US20210030838A1, “CHEMOTAXIS-POTENTIATING PEPTIDES AND USES THEREOF” (University of Copenhagen, priority 2017, published 2021).

How the values were obtained:
CCR7 = target: T1, CCR7 (Homo sapiens, UniProt P32248); assay: CCR7 signalling via Gαi (cAMP decrease, Camyel BRET) in transfected CHO cells; type: cell-based; details: BRET ratio; for G-protein signalling via CCR7 induced by the chemokine itself (comparison): FIG. 4A-D; for effect of peptide on CCL19-induced CCR7 signalling / effect of peptide on CCL19 chimera-induced CCR7 signalling / effect of peptide on full-length CCL21-induced CCR7 signalling / effect of peptide on tailless CCL21-induced CCR7 signalling: peptide 10 μM
T1 construct: expressed in transfected cells; host or cells: CHO cells, transient lipofectamine co-transfection with the Camyel cAMP BRET sensor
T1 sequence (P32248 25-378): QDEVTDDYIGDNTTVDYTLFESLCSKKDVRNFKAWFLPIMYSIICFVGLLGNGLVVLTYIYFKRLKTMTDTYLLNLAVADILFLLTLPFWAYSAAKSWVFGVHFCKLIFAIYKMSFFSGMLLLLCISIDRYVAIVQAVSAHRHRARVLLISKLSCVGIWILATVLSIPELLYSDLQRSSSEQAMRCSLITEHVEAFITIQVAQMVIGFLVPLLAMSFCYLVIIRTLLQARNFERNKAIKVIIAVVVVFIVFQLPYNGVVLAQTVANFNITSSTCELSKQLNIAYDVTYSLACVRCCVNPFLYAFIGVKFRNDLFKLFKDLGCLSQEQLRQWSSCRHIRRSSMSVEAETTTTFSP
Experimental: CCR7 signalling induced by CCL19, CCL21, CCL19 chimera (CCL19 with CCL21 tail) and tailless CCL21 was investigated. Signalling was detected as a decrease in cAMP which is reflected by an increase in BRET (Bioluminescence resonance energy transfer) ratio.
CHO cells were grown in RPMI medium with 10% FBS and 1% Penicillin/Streptomycin. Cells where seeded in a concentration yielding 1,000,000 cells/well on transfection day (using 6-well-plates).
Cells were transfected with CCR7 and Camyel-encoding plasmids (in 1:5 ratio) using lipofectamine with a total of […] of DNA and […] lipofectamine per well. After 24 hours, the cells where washed in PBS and resuspended in PBS with glucose (final concentration 5 mM).
After harvesting, cells where pooled in two groups. One group was used as a control, whereas the other was supplemented with SEQ ID NO: 1 (CCL21 tail peptide (D1-4)) in a final concentration of 10 μM.
The cells where plated in a 96-well black-white iso plate according to setup. Coelenterazine (final concentration of 5 μM) was added and cells were incubated for 10 min. The 4 ligands (CCL19, CCL21, CCL19 chimera, and tailless CCL21) were added to respective wells. An equal amount chemokine buffer was added to wells without ligands. Forskolin was added to the wells 5 min after addition of ligands.
The BRET ratio was measured as the ratio eYFP/RLuc (BRET 525 emission/BRET 485 emission). In the absence of ligand, bioluminescence resonance energy transfer (BRET) between RLuc and eYFP, both harboured by the Camyel sensor, is high, giving rise to emission from both RLuc and eYFP and a concomitant high BRET ratio. When cAMP binds to the camyel sensor, bioluminescence resonance energy transfer from RLuc to eYFP is decreased, lowering emission from eYFP and thus lowering the BRET ratio. This means that stimulation of receptors that signal via an increase in cAMP leads to a decrease in BRET ratio. The opposite is the case upon stimulation of chemokine receptors that signal via a decrease in cAMP, giving rise to an increase in eYFP and thus BRET ratio.

neutrophil = details: through inhibition of GAG-binding of CXCL8; cited from earlier work
[1] = test system: monocyte derived human DCs (moDC); assay: Ibidi 3D μ-slide chemotaxis assay of monocyte derived human DCs (moDC); type: cell-based; details: for potentiating effect on CCL21 induced chemotaxis of moDC (in words): FIG. 3, 6, 7, 8; for potentiation of moDC chemotaxis induced by CCL19: CCL19 1 and 10 nM, FIG. 1 column 5-8
Experimental: Ibidi3D μ-slide chemotaxis assay. Mature monocyte derived human DCs were thawed by adding pre-warmed X-vivo, 2% FCS and Glutamine, dissolving in a total of 10 ml of medium. After centrifugation (220×g, 5 min), the DCs were resuspended in fresh medium and left to acclimatize for 20 min.
The collagen mixture with cells was prepared according to the manufacturer's protocol. Briefly, 10 μl 7.5% NaHCO3 was mixed with 20 μl 10×MEM and 150 μl Pure Col was added. After mixing, 90 μl of a mixture of DCs (1×10^6 cells/ml) and CCL21 Tail peptide (final concentration 10 μM) was added. The cell/collagen solution was transferred to the ibidi μ-slide channel holding 6 μl. The collagen with cells was allowed to crosslink in the incubator for 45 minutes in a humidified petridish (holding napkins wetted in sterile water). While filling sink and source reservoirs, the channel and second reservoir were kept plugged. Medium with chemokine buffer (X-vivo 15, 2% HS, glutamine) and Tail-peptide was added to the sink (60 μl), and medium with chemokine plus Tail-peptide was added to the source (60 μl). The setup was transferred to Time-lapse. Cells were tracked for 10 hours and films were analyzed using Autozell tracking program. A population based chemotactic index (CI) was extracted using MatLab.

[2] = test system: CT26-FL3-luc cancer cells; assay: In vivo cancer growth of CT26-FL3-luc cells in Balb/c mice (bioluminescence, IVIS); details: FIG. 5; for tumor growth (bioluminescent signal, total flux): Balb/c mice
Experimental: SEQ ID NO: 1 was tested for its effect on in vivo cancer growth in mice. Female Balb/c mice were injected intraperitoneally with 1.5×10^5 CT26-FL3-luc cancer cells on day 0. The CT26-FL3-luc cell line is derived from a highly metastatic murine colorectal cancer and has been engineered to express luciferase. On days 1, 2, and 3, the mice were injected intraperitoneally with either 0.25 μg murine CCL21, 20 μg human CCL21-Tail peptide (SEQ ID NO: 1), or vehicle (PBS). The CCL21 concentration was determined based on previously published in vivo experiments using CCL21. Administration of SEQ ID NO: 1 functions by a different mechanism than administration of CCL21 as SEQ ID NO: 1 affects the distribution of endogenous CCL21 in the surrounding tissue. Cancer growth was followed over time in live animals by injecting luciferin intraperitoneally and measuring the bioluminescent signal arising from the luciferase-expressing cancer cells using an In Vivo Imaging System (IVIS®) scanner. The bioluminescent signal (total flux) was used to quantify the cancer growth. The number of mice per group was 5-7, and data is shown as mean±SEM.

[3] = test system: monocyte derived human DCs (moDC); assay: Ibidi 3D μ-slide chemotaxis assay of monocyte derived human DCs (moDC); type: cell-based; details: 10 nM CCL21; peptide dose dependent; FIG. 1 column 1-4
tumour cells = details: CCL21 administered to tumor sites; cited from earlier work

Molecule: CCL19: chemokine, endogenous ligand of CCR7
- G-protein signalling via CCR7 induced by the chemokine itself (comparison) (CCR7): more potent than CCL21

Molecule: CXCL9(74-103): CXCL9 C-terminal peptide capable of binding GAGs (Vanheule et al. 2017) (KKKQKNGKKHQKKKVLKVRKSQRSRQKKTT; UniProt Q07325 96-125, looked up, fragment)
- CXCL8-induced neutrophil migration (neutrophil): inhibit CXCL8-induced neutrophil migration

Molecule: KDRGASKTG KKGKGSKGCK RTERSQTPKG P (KDRGASKTGKKGKGSKGCKRTERSQTPKGP; listed as Homo sapiens) [SEQ ID NO: 6, CCL21 82-111]
- potentiating effect on CCL21 induced chemotaxis of moDC (in words) [1]: reduced capability to potentiate chemotaxis

Molecule: PSPQKPAQGCRKDRGASKTGK (PSPQKPAQGCRKDRGASKTGK; listed as Homo sapiens) [SEQ ID NO: 36, C terminally truncated fragment of CCL21 71-111]
- potentiating effect on CCL21 induced chemotaxis of moDC (in words) [1]: did not potentiate chemotaxis

Molecule: PSPQKPAQGCRKDRGASKTGKKGKGSKGCKRTERSQTPKGP (PSPQKPAQGCRKDRGASKTGKKGKGSKGCKRTERSQTPKGP; listed as Homo sapiens) [SEQ ID NO: 1, full length C-terminal tail of CCL21, CCL21 71-111 (D1-D4)]
- tumor growth (bioluminescent signal, total flux) ([2]; 20 μg peptide intraperitoneally on days 1, 2, 3): decreased tumor growth
- effectiveness on tumor growth compared with CCL21 treatment ([2]; 20 μg peptide vs 0.25 μg murine CCL21, intraperitoneally): more effective than treatment with the chemokine CCL21
- effect of peptide on CCL19-induced CCR7 signalling (CCR7; FIG. 4): no effect
- effect of peptide on CCL19 chimera-induced CCR7 signalling (CCR7; FIG. 4): potentiated
- effect of peptide on full-length CCL21-induced CCR7 signalling (CCR7; FIG. 4): potentiated
- effect of peptide on tailless CCL21-induced CCR7 signalling (CCR7; FIG. 4): no effect
- effect of peptide on CCL19-induced CCR7 signalling (CCR7; FIG. 4, listed as CCL21 71-111): essentially no difference in CCR7 signalling
- effect of peptide on CCL19 chimera-induced CCR7 signalling (CCR7; FIG. 4, listed as CCL21 71-111): increased CCR7 signalling
- effect of peptide on full-length CCL21-induced CCR7 signalling (CCR7; FIG. 4, listed as CCL21 71-111): increased CCR7 signalling
- effect of peptide on tailless CCL21-induced CCR7 signalling (CCR7; FIG. 4, listed as CCL21 71-111): essentially no difference in CCR7 signalling
- potentiation of moDC chemotaxis induced by CCL21 [3]: up to 26 fold
- potentiation of moDC chemotaxis induced by CCL19 ([1]; peptide 10 uM): less than two fold
- potentiation of moDC chemotaxis induced by CCL19 ([1]; peptide 10 uM, listed as CCL21 71-111): only two fold
- potentiation of moDC chemotaxis induced by CXCL12gamma ([1]; CXCL12gamma 20 and 100 nM, peptide 10 uM, FIG. 1 column 9-12): no strong chemotaxis signal
- potentiating effect on CCL21 induced chemotaxis of moDC (in words) [1]: retained full potency

Molecule: RKDRGASKTGKKGKGSKGCKRTERSQTPKGP (RKDRGASKTGKKGKGSKGCKRTERSQTPKGP; listed as Homo sapiens) [SEQ ID NO: 4, CCL21 81-111 (D2-D4)]
- potentiating effect on CCL21 induced chemotaxis of moDC (in words) [1]: retained full potentiating effect

Molecule: TG KKGKGSKGCK RTERSQTPKG P (TGKKGKGSKGCKRTERSQTPKGP; listed as Homo sapiens) [SEQ ID NO: 13, CCL21 89-111]
- potentiating effect on CCL21 induced chemotaxis of moDC (in words) [1]: retain full potentiating effect

B1: SDGGAQDCCLKYSQRKIPAKVVRSYRKQEPSLGCSIPAILFLPRKRSQAELCADPKELWVQQLMQHLDKTPSPQKPAQGCRKDRGASKTGKKGKGSKGCKRTERSQTPKGP (protein, listed as Homo sapiens)
chain: SDGGAQDCCLKYSQRKIPAKVVRSYRKQEPSLGCSIPAILFLPRKRSQAELCADPKELWVQQLMQHLDKTPSPQKPAQGCRKDRGASKTGKKGKGSKGCKRTERSQTPKGP
notes: chemokine, endogenous ligand of CCR7; full length CCL21 without the signal peptide
- growth of tumour cells (tumour cells): reduced growth of the tumour cells

B2: CCL19 chimera: CCL19 with CCL21 Tail peptide attached at the C-terminus (protein)
chain: GTNDAEDCCLSVTQKPIPGYIVRNFHYLLIKDGCRVPAVVFTTLRGRQLCAPPDQPWVERIIQRLQRTSAKMKRRSSPSPQKPAQGCRKDRGASKTGKKGKGSKGCKRTERSQTPKGP
- G-protein signalling via CCR7 induced by the chemokine itself (comparison) (CCR7): resembles CCL21 signalling

B3: murine CCL21: murine chemokine CCL21 injected intraperitoneally as comparison treatment (protein, UniProt P84444 24-133, looked up)
C-C motif chemokine 21a: SDGGGQDCCLKYSQKKIPYSIVRGYRKQEPSLGCPIPAILFSPRKHSKPELCANPEEGWVQNLMRRLDQPPAPGKQSPGCRKNRGTSKSGKKGKGSKGCKRTEQTQPSRG
- tumor growth (bioluminescent signal, total flux) ([2]; 0.25 μg murine CCL21 intraperitoneally on days 1, 2, 3): decreased tumor growth
